These results are taken from article PMC6393303.

For assay [1], the target named is wild-type proliferating cell nuclear antigen (PCNA) (yeast) (UniProt P15873).
The target is the same in assay [2]. This is another data set of the same source.
Assay [3] has as its target pcna-6 (DD41,42AA) mutant PCNA (yeast) (UniProt P15873).
For assay [4], the target named is wild-type proliferating cell nuclear antigen (PCNA) (yeast) (UniProt P15873). This is another data set of the same source.
In assay [5] the target is pcna-6 (DD41,42AA) mutant PCNA (yeast) (UniProt P15873). The source holds these as a separate data set.
The target of assay [6] is wild-type proliferating cell nuclear antigen (PCNA) (yeast) (UniProt P15873). The source holds these as a separate data set.

Chain of wild-type proliferating cell nuclear antigen (PCNA) (yeast) (P15873 whole entry): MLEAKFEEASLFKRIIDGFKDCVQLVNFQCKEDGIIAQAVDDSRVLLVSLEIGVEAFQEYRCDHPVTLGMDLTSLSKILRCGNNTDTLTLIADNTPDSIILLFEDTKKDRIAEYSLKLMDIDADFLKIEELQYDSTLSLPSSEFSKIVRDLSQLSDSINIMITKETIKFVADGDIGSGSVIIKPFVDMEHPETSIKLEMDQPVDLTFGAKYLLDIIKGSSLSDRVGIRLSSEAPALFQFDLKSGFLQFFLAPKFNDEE
Chain of pcna-6 (DD41,42AA) mutant PCNA (yeast) (P15873 other isoform, or with tags, fused parts or gaps mutant): as the sequence (P15873 whole entry) above, with D41A, D42A counted along it

Regarding “mini-Pol δ-DV (variant DNA polymerase δ heterotrimer, exonuclease-deficient D520V) (from UniProt P15436 82-1097; P46957 1-487; P47110 1-350) (complex)”, the nucleotide incorporation rate (rate of primer disappearance, single exponential fit), quench flow, 75/29 template/primer, 300 nM mini-Pol δ-DV, 150 nM PCNA, 75 nM RFC, AMP-CPP, 100 mM NaCl, 30°C in assay [1] was over 350 s⁻¹. The substance also came in with a replication of the T20 template by the fastest moving complexes, quench flow, 100 mM NaCl (nucleotides per second) in assay [2] of 500. Also, the peak of the normalized product distribution (nucleotides incorporated) at 10 and 50 ms, single processive cycle with heparin trap in assay [3] is 7 nucleotides; in assay [4] it was 16 nucleotides.

On to “DNA polymerase δ (Pol δ-DV), full-length exonuclease-deficient (D520V) heterotrimer (from UniProt P15436 1-1097; P46957 1-487; P47110 1-350) (complex)”, for which the single-nucleotide extension rate (k fast), quench flow, 76/29 template/primer, 12°C in assay [5] was 55 s⁻¹; in assay [6] it was 183 s⁻¹.
